# Data as given in paper PMC5913352.
# Target: T1, PhoP (non-phosphorylated) (Escherichia coli ExPEC (APEC) FY26 (O2:K1, ST95)?) (UniProt Q8CXZ9)
# T1 sequence: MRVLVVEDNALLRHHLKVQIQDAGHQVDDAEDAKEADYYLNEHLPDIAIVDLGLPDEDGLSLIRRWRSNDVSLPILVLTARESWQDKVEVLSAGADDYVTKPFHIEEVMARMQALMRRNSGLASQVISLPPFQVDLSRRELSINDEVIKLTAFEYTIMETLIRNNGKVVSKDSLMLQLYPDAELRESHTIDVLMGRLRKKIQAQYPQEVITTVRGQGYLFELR
# Test: EMSA
sequence,measurement,value
CAGGACTGAAACGCTTCCTTCATGTTGGTACTGCTATGTCTTGTACACCTCATACGGGGTCGCTAGTTAAGGAAGAGTCTGCTTCATCAGAAACAGGTGAACATTTAGTGGAGTATACGCATTCAAAAGCAACAATAGAATATCTGATGCGTAAGCAGTGTCCTGATTTACCTTTGTTGGTTGCCCGACCATCAATTATT (double strand),binding,no binding
